In patent US20050003420, “Recycled mutagenesis of restriction endonuclease toward enhanced catalytic activity” (published 2005):

How the values were obtained:
[1] = molecular target: T1, BsoBI D246A (UniProt P70985 P70985:1-323, D246A); assay: filter; 4 mM CaCl2; ±40; conditions: chain copies: 2 inferred; label: 33P 5' end
T1 sequence: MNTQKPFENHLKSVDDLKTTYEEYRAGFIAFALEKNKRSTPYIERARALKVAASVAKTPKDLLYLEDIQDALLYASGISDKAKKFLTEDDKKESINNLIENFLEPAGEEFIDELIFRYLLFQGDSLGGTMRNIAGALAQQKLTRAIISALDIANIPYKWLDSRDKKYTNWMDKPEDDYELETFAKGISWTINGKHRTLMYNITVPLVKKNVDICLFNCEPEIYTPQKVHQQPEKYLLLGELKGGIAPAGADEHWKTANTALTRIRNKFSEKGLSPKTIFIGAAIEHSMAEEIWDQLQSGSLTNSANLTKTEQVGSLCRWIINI
Experimental: (§1) The binding condition was in 10 mM Tris-HCl, pH 7.5, 100 mM NaCl, 50 mg/ml BSA, 4 mM CaCl₂ in […] volume. The labeled DNA substrates were diluted to a final scintillation count of 1000-5000 cpm and varying amount of BsoBI or each variant was added. Following incubation at room temperature for 10 min, the bound complex was loaded onto Micropure EZ column (Millipore Corporation, Bedford, Mass.) and spun at 16K g for 1 min. Protein and protein:DNA complexes are bound to the membrane in the Micropure EZ column and only the free unbound DNA is in the flow-through fraction. 180 μl of the flow-through liquid was immediately transferred to scintillation counting vials filled with 1.5 ml OPTI-FLUOR for aqueous samples (Packard, Meriden, Conn.). The radioactivity count from the sample without BsoBI is F₀, and the radioactivity count from sample with BsoBI or each variant is F. The apparent Kd value is calculated from F/F₀ and the BsoBI concentration [E] according to equation [1]. F/F₀=a [Kd/([E]+Kd)]+b a and b are equation fitting parameters, where b is the non-specific flow-through, and a is the maximum change amplitude.
(§2) DNA binding properties of BsoBI endonuclease and variants: To obtain reproducible BsoBI:DNA binding data, a filter binding assay utilizing a microcentrifuge filter was developed. […]

[2] = molecular target: T2, BsoBI D246E (UniProt P70985 P70985:1-323, D246E); assay: filter; 4 mM CaCl2; ±20000; conditions: chain copies: 2 inferred; label: 33P 5' end
T2 sequence: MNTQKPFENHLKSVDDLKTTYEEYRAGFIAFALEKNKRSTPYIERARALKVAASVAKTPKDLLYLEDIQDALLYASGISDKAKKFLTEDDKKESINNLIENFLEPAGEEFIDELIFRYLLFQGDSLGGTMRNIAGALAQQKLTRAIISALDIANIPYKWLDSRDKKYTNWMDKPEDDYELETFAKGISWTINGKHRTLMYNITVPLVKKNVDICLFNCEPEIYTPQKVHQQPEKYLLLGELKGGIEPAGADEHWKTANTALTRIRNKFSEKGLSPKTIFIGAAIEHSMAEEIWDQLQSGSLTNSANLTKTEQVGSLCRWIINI
Experimental: as §1, §2

[3] = molecular target: T3, BsoBI D246C (UniProt P70985 P70985:1-323, D246C); assay: filter; 4 mM CaCl2; ±11; conditions: chain copies: 2 inferred; label: 33P 5' end
T3 sequence: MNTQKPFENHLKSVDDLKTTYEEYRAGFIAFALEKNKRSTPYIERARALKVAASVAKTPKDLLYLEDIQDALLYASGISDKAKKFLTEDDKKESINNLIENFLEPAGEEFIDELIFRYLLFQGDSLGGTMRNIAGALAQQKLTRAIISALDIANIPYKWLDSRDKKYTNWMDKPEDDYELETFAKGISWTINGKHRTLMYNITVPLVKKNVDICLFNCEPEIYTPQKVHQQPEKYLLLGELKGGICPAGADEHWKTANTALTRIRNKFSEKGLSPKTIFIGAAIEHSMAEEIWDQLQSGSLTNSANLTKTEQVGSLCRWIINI
Experimental: as §1, §2

[4] = molecular target: T4, BsoBI D246Y (UniProt P70985 P70985:1-323, D246Y); assay: filter; 4 mM CaCl2; ±16; conditions: chain copies: 2 inferred; label: 33P 5' end
T4 sequence: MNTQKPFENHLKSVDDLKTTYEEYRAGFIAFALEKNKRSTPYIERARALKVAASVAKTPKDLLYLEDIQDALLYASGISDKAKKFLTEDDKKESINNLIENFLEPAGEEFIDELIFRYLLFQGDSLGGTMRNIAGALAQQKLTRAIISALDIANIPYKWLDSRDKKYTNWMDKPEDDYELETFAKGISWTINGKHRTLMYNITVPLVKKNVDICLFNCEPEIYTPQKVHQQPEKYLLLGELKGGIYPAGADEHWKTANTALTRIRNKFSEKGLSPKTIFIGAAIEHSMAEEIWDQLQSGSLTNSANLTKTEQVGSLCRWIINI
Experimental: as §1, §2

[5] = molecular target: T5, BsoBI restriction endonuclease (UniProt P70985 P70985:1-323); assay: filter; 4 mM CaCl2, 100 mM NaCl, pH 7.5, room temp; ±2.0; conditions: tags: untagged, expressed from pRRS-bsoBIR in E. coli ER2683; chain copies: 2 inferred; label: 33P 5' end
T5 sequence: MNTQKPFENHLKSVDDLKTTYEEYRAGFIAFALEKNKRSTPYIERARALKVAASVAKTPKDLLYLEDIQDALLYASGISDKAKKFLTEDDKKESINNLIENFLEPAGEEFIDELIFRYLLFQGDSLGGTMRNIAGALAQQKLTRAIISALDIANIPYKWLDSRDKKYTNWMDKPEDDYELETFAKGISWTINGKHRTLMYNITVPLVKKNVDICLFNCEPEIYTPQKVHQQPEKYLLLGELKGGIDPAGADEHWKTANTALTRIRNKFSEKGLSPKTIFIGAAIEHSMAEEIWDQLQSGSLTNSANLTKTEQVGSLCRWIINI
Experimental: as §1, §2

[6] = molecular target: T6, BsoBI D246R (UniProt P70985 P70985:1-323, D246R); assay: filter; 4 mM CaCl2; ±20; conditions: chain copies: 2 inferred; label: 33P 5' end
T6 sequence: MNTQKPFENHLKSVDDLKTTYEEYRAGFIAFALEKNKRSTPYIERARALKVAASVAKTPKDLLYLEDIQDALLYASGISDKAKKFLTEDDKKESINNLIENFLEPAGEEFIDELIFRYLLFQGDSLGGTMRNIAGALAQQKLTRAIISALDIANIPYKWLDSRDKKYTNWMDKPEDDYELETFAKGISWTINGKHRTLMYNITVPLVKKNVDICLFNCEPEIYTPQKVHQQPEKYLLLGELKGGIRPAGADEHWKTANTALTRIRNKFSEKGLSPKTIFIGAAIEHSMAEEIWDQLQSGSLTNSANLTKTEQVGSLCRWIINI
Experimental: as §1, §2

[7] = molecular target: T2, BsoBI D246E; assay: filter; 4 mM CaCl2; ±3347; conditions: chain copies: 2 inferred; label: 33P 5' end
Experimental: as §1, §2

[8] = molecular target: T3, BsoBI D246C; assay: filter; 4 mM CaCl2; ±10; conditions: chain copies: 2 inferred; label: 33P 5' end
Experimental: as §1, §2

[9] = molecular target: T5, BsoBI restriction endonuclease; assay: filter; 4 mM CaCl2, non-specific control; ±143; conditions: tags: untagged, expressed from pRRS-bsoBIR in E. coli ER2683; chain copies: 2 inferred; label: 33P 5' end
Experimental: as §1, §2

[10] = molecular target: T6, BsoBI D246R; assay: filter; 4 mM CaCl2; ±4.9; increased non-specific binding; conditions: chain copies: 2 inferred; label: 33P 5' end
Experimental: as §1, §2

[11] = molecular target: T1, BsoBI D246A; assay: filter; 4 mM CaCl2; ±97; conditions: chain copies: 2 inferred; label: 33P 5' end
Experimental: as §1, §2

[12] = molecular target: T4, BsoBI D246Y; assay: filter; 4 mM CaCl2; ±67; conditions: chain copies: 2 inferred; label: 33P 5' end
Experimental: as §1, §2

[13] = molecular target: T2, BsoBI D246E; assay: filter; 4 mM CaCl2; ±683; conditions: chain copies: 2 inferred; label: 33P 5' end
Experimental: as §1, §2

[14] = molecular target: T1, BsoBI D246A; assay: filter; 4 mM CaCl2; ±0.6; conditions: chain copies: 2 inferred; label: 33P 5' end
Experimental: as §1, §2

[15] = molecular target: T6, BsoBI D246R; assay: filter; 4 mM CaCl2; ±3.5; conditions: chain copies: 2 inferred; label: 33P 5' end
Experimental: as §1, §2

[16] = molecular target: T4, BsoBI D246Y; assay: filter; 4 mM CaCl2; ±2; conditions: chain copies: 2 inferred; label: 33P 5' end
Experimental: as §1, §2

[17] = molecular target: T3, BsoBI D246C; assay: filter; 4 mM CaCl2; ±4; conditions: chain copies: 2 inferred; label: 33P 5' end
Experimental: as §1
(§3) DNA binding properties of BsoBI endonuclease and variants: To obtain reproducible BsoBI:DNA binding data, a filter binding assay utilizing a microcentrifuge filter was developed. In the control experiment, more than 99% of the wt BsoBI endonuclease was retained on the filter of the spin column. When labeled duplex DNA was loaded onto the membrane in the absence of protein, more than 95% of the DNA passed through the column. […] The heat-treatment step removed approximately 80% of E. coli proteins. The filter-binding assay was performed for wt BsoBI endonuclease and variants D246A, D246C, D246E, D246R, and D246Y in the presence of Ca⁺⁺. The inclusion of Ca⁺⁺ in the binding buffer stabilizes the protein:DNA complex in DNA mobility shift assays (data not shown) and it was presumed that Ca⁺⁺ does the same in the filter binding assay.

[18] = molecular target: T5, BsoBI restriction endonuclease; assay: filter; 4 mM CaCl2, 100 mM NaCl, pH 7.5, room temp; ±1.2; conditions: tags: untagged, expressed from pRRS-bsoBIR in E. coli ER2683; chain copies: 2 inferred; label: 33P 5' end
Experimental: as §1, §2

[19] = molecular target: T6, BsoBI D246R; assay: filter; 4 mM CaCl2; ±4.6; conditions: chain copies: 2 inferred; label: 33P 5' end
Experimental: as §1, §2

[20] = molecular target: T5, BsoBI restriction endonuclease; assay: filter; 4 mM CaCl2, 100 mM NaCl, pH 7.5, room temp; ±0.9; conditions: tags: untagged, expressed from pRRS-bsoBIR in E. coli ER2683; chain copies: 2 inferred; label: 33P 5' end
Experimental: as §1, §2

[21] = molecular target: T4, BsoBI D246Y; assay: filter; 4 mM CaCl2; ±4; conditions: chain copies: 2 inferred; label: 33P 5' end
Experimental: as §1, §3

[22] = molecular target: T1, BsoBI D246A; assay: filter; 4 mM CaCl2; ±4; conditions: chain copies: 2 inferred; label: 33P 5' end
Experimental: as §1, §3

[23] = molecular target: T2, BsoBI D246E; assay: filter; 4 mM CaCl2; ±1578; conditions: chain copies: 2 inferred; label: 33P 5' end
Experimental: as §1, §2

[24] = molecular target: T3, BsoBI D246C; assay: filter; 4 mM CaCl2; ±9.8; conditions: chain copies: 2 inferred; label: 33P 5' end
Experimental: as §1, §2

B1: S1 (CTCGAG) (dsDNA)
DNA 1: GAGTGTTATGGGTAGCTCGAGTGAAGTGGGAATATC
DNA 2: GATATTCCCACTTCACTCGAGCTACCCATAACACTC
With B1 the Kd [1] was 219 pM, the Kd [2] was 80000 pM and the Kd [3] was 74 pM. It also gave a Kd [4] of 132 pM, a Kd [5] of 9.2 pM and a Kd [6] of 89 pM.

B2: N (CATAAC, non-specific) (dsDNA)
DNA 1: GAGTGTTATGGGTAGCATAACTGAAGTGGGAATATC
DNA 2: GATATTCCCACTTCAGTTATGCTACCCATAACACTC
B2 was tested, and the Kd [7] was 93200 pM, the Kd [8] was 142 pM and the Kd [9] was 1440 pM. It also gave a Kd [10] of 64 pM, a Kd [11] of 578 pM and a Kd [12] of 449 pM.

B3: S2 (CCCGGG) (dsDNA)
DNA 1: GAGTGTTATGGGTAGCCCGGGTGAAGTGGGAATATC
DNA 2: GATATTCCCACTTCACCCGGGCTACCCATAACACTC
Work on B3 yielded a Kd [13] of 2840 pM, a Kd [14] of 3.1 pM and a Kd [15] of 38 pM. The Kd [16] was 41 pM, the Kd [17] was 30 pM and the Kd [18] was 6.6 pM.

B4: S3 (CTCGGG/CCCGAG) (dsDNA)
DNA 1: GAGTGTTATGGGTAGCTCGGGTGAAGTGGGAATATC
DNA 2: GATATTCCCACTTCACCCGAGCTACCCATAACACTC
B4 was tested, and the Kd [19] was 39 pM, the Kd [20] was 5.3 pM and the Kd [21] was 57 pM. The Kd [22] was 17 pM, the Kd [23] was 42100 pM and the Kd [24] was 64 pM.
